Source: PMC6990103 (Journal of molecular biology, 2019)

Columns and labels:
[1] = molecular target: T1, nluc-NP612 fusion protein, RESTV (Reston ebolavirus, Reston 1989 (isolate …, UniProt Q8JPY1)); test: far-Western, overlay or dot blot; settings: both partners purified
T1 construct: also called RESTV NP612 C-terminus; source: E. coli BL21(DE3)+pRARE, cytosolic, purified (IMAC, SEC)

[2] = molecular target: T2, nluc-NP612 fusion protein, TAFV (Tai Forest ebolavirus, IC1 1994, UniProt B8XCN6); test: far-Western, overlay or dot blot; settings: both partners purified
T2 construct: also called TAFV C-terminus; source: E. coli BL21(DE3)+pRARE, cytosolic, purified (IMAC, SEC)

recombinant BDBV 2007 NP [3] = molecular target: T3, recombinant BDBV 2007 NP (Bundibugyo ebolavirus (BDBV)., UniProt B8XCM7); test: far-Western, overlay or dot blot; settings: both partners purified
T3 construct: also called BDBV NP

[4] = molecular target: T4, nluc-NP612 fusion protein, SUDV (Sudan ebolavirus, Boniface 1976 …, UniProt Q9QP77); test: far-Western, overlay or dot blot; settings: both partners purified
T4 construct: also called SUDV NP612 C-terminus; source: E. coli BL21(DE3)+pRARE, cytosolic, purified (IMAC, SEC)

[5] = molecular target: T5, recombinant SUDV Boniface 1976 NP (Sudan ebolavirus, Boniface 1976, UniProt Q9QP77); test: far-Western, overlay or dot blot; settings: both partners purified
T5 construct: also called SUDV NP; full-length NP polymers

[6] = molecular target: T6, nluc-NP612 fusion protein, BDBV (Bundibugyo ebolavirus, Uganda 2007, UniProt B8XCM7); test: far-Western, overlay or dot blot; settings: both partners purified
T6 construct: also called BDBV NP612 C-terminus; source: E. coli BL21(DE3)+pRARE, cytosolic, purified (IMAC, SEC)

[7] = molecular target: T7, recombinant TAFV IC1 1994 NP (Tai Forest ebolavirus (TAFV)., UniProt B8XCN6); test: far-Western, overlay or dot blot; settings: both partners purified
T7 construct: also called TAFV NP

[8] = molecular target: T1, nluc-NP612 fusion protein, RESTV; test: ELISA; settings: both partners purified
[9] = molecular target: T8, NP of TAFV IC1 1994 in live virus preparation (Tai Forest ebolavirus (TAFV)., UniProt B8XCN6); test: ELISA; settings: one partner purified
T8 construct: also called TAFV (virus)

[10] = molecular target: T9, NP of SUDV Boniface 1976 in live virus preparation (Sudan ebolavirus, Boniface 1976, UniProt Q9QP77); test: ELISA; settings: one partner purified
T9 construct: also called SUDV (virus)

[11] = molecular target: T2, nluc-NP612 fusion protein, TAFV; test: ELISA; settings: both partners purified
recombinant BDBV 2007 NP [12] = molecular target: T3, recombinant BDBV 2007 NP; test: ELISA; settings: both partners purified
[13] = molecular target: T4, nluc-NP612 fusion protein, SUDV; test: ELISA; settings: both partners purified
[14] = molecular target: T5, recombinant SUDV Boniface 1976 NP; test: ELISA; settings: both partners purified
[15] = molecular target: T6, nluc-NP612 fusion protein, BDBV; test: ELISA; settings: both partners purified
[16] = molecular target: T7, recombinant TAFV IC1 1994 NP; test: ELISA; settings: both partners purified

Measured: binding result

B1: sdAb ZE alkaline phosphatase fusion (VHH)
VHH: QVQLQESGGGLVQPGGSLRLSCTASGFTLAEYGVGWFRQAPGKERELVALIAVGGTTHSIDSVKGRFTISRDNMKNTVYLQMNSLNVEDTAVYYCNAYSSAYDRNYWGQGTQVTVSS
notes: also called sdAb-AP fusion of ZE; source: previously generated [9], stored at -80 °C
binds: [1] | [2] | recombinant BDBV 2007 NP [3] | [4] | [5] | [6] | [7]

B2: sdAb ZE, biotinylated (from pecan126) (VHH)
VHH: QVQLQESGGGLVQPGGSLRLSCTASGFTLAEYGVGWFRQAPGKERELVALIAVGGTTHSIDSVKGRFTISRDNMKNTVYLQMNSLNVEDTAVYYCNAYSSAYDRNYWGQGTQVTVSS
notes: also called anti-Ebola virus sdAb; oriented sdAb captor; source: E. coli HBV88, pecan126 preparations
binds: [8] | [9] | [10] | [11] | recombinant BDBV 2007 NP [12] | [13] | [14] | [15] | [16]
